Measured values reported in the supplement of paper PMC9732359.
± gives the uncertainty stated by the source.

Test: protein stability index of a GFP-peptide fusion (yeast GPS) (PSI 1-4); higher = more stable; sorted into four equal gates, so the index is relative within each strain
How it was run: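 The protein stability index combines read frequencies across sorting gates, each weighted by its gate number and then summed. To obtain those frequencies, a pooled yeast library of GFP fusions to tiled 17-residue yeast protein peptides, on a plasmid also expressing Cherry, was grown to mid-log phase in leucine-free medium. The cells were sorted into four equal gates by GFP/Cherry ratio before plasmid amplification by PCR and Illumina sequencing.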

Sequence | protein stability index (doa10∆) | protein stability index (pdr5∆) | protein stability index (san1∆) | protein stability index (ubr1∆)
LRDREDWGQALRLLLLL [YJR042W/NUP85] | 2.83 ± 0.066 | 2.13 ± 0.067 | 2.2 ± 0.083 | 1.66 ± 0.044
GYALRDVQARRQFVSNV [RPP1] | – | 1.99 ± 0.16 | – | –
IEQGIPKHSYLSGNPLT [SIR4] | 2.86 ± 0.07 | 2.88 ± 0.076 | 3.13 ± 0.17 | 2.96 ± 0.061
NWWHSEFEIPVSFNGFK [BRR2] | 1.49 ± 0.098 | 1.32 ± 0.068 | 1.14 ± 0.17 | 1.34 ± 0.058
RWKRFTIGAIFLNHAFD [CDC53] | 2.54 ± 0.065 | 2 ± 0.069 | 2.18 ± 0.099 | 1.53 ± 0.048
GKTTSCTKLAVYYSKRG [SRP54] | – | 2.76 ± 0.19 | 2.18 ± 0.22 | 2.51 ± 0.098
NRDRSFQLLEPLSTYNK [PGD1] | 3 ± 0.051 | 2.95 ± 0.062 | 2.93 ± 0.053 | 2.72 ± 0.045
SCLTFFQALDSEETQFK [ITC1] | 2.73 ± 0.1 | 3.49 ± 0.13 | 2.7 ± 0.11 | 3.17 ± 0.15
FDTDWNPHQDLQAQDRA [SNF2] | 3.07 ± 0.068 | 3.16 ± 0.056 | 2.94 ± 0.037 | 3.35 ± 0.05
CRYSCLALERMVPKRST [YCS4] | 2.71 ± 0.27 | – | – | 2.02 ± 0.18
DINTIKLQLSFVLQMVG [SRP72] | 1.26 ± 0.092 | 1.88 ± 0.066 | 1.32 ± 0.11 | 1.57 ± 0.062
YSSWSAQTIGRNSKTVR [PRE6] | 2.62 ± 0.14 | 2.9 ± 0.14 | 2.91 ± 0.12 | 2.85 ± 0.098
SCTKCPQIVVPDAQNEL [DIS3] | 2.17 ± 0.05 | 2.42 ± 0.04 | 2.48 ± 0.057 | 2.34 ± 0.059
NKKRPSSKKVFSSNLSY [YOR098C/NUP1] | 2.48 ± 0.073 | 2.4 ± 0.063 | 2.08 ± 0.1 | 2.56 ± 0.05
ALVKPETQFKLSRPYKA [CDC53] | 2.41 ± 0.068 | 2.64 ± 0.059 | 2.59 ± 0.059 | 2.34 ± 0.063
LEKGNNPSVKQGEVGAV [SWP82] | 2.89 ± 0.076 | 3.13 ± 0.083 | 3.44 ± 0.052 | 2.7 ± 0.074
LYSIREDYELSPQAVSS [PRE1] | 2.2 ± 0.13 | 2.83 ± 0.097 | 2.63 ± 0.062 | 2.38 ± 0.069
IAFLVGLVNPKTVQSMT [SWI3] | 2.46 ± 0.068 | 2.02 ± 0.059 | 2.11 ± 0.07 | 2.56 ± 0.041
MSPNHGTFGGDGMYSES [FAS2] | 1.87 ± 0.075 | 2.34 ± 0.064 | 2.8 ± 0.14 | 2.43 ± 0.064
LFQENDDDDDDDDEVDY [DSN1] | 2.94 ± 0.14 | 2.71 ± 0.1 | 2.97 ± 0.091 | 3.06 ± 0.15
NVLNQIHQILLPTNPTL [CSE2] | 2.65 ± 0.036 | 2.74 ± 0.037 | 2.14 ± 0.05 | 2.42 ± 0.035
SSLIPHCITSITLALAD [MTR3] | 1.28 ± 0.055 | 1.32 ± 0.069 | 1.27 ± 0.17 | 1.3 ± 0.083
VSLLKKNWQNVGSLVVK [RPL1A] | 1.15 ± 0.049 | 1.39 ± 0.056 | 1.36 ± 0.12 | 1.32 ± 0.053
LFDEFGNLIGVDPFDSD [SNU114] | 3.12 ± 0.078 | 3.04 ± 0.069 | 2.87 ± 0.069 | 3.17 ± 0.058
NAQLSCITKQDGFKIYD [PUP2] | 3.04 ± 0.16 | 3.17 ± 0.12 | 3.12 ± 0.098 | 3.07 ± 0.1
YKKLDIDGKVIQAGKFD [SNF2] | 2.94 ± 0.088 | 3.36 ± 0.08 | 3.06 ± 0.044 | 2.99 ± 0.059
AFSPLTTTRIQSQQAQP [MED2] | 2.7 ± 0.055 | 2.83 ± 0.044 | 2.52 ± 0.061 | 2.8 ± 0.036
